Experimental data taken from US20180369344.

Target: alpha1 antitrypsin (AAT), P01009
Sequence (P01009 whole entry, looked up): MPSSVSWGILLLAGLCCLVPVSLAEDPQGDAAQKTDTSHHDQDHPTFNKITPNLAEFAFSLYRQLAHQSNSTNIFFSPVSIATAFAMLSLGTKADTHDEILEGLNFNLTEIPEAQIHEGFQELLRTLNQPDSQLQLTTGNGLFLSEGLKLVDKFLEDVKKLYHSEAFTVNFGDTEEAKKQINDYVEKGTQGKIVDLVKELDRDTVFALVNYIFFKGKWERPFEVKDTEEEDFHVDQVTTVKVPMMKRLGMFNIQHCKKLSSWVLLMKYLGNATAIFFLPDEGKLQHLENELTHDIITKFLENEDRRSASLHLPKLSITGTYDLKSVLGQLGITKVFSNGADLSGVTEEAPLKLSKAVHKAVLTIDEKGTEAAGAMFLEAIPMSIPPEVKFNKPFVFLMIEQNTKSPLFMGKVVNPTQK

B1: wildtype Cela2a (protein)
chain: VVGGEEARPNSWPWQVSLQYSSNGKWYHTCGGSLIANSWVLTAAHCISSSRTYRVGLGRHNLYVAESGSLAVSVSKIVVHKDWNSNQISKGNDIALLKLANPVSLTDKIQLACLPPAGTILPNNYPCYVTGWGRLQTNGAVPDVLQQGRLLVVDYATCSSSAWWGSSVKTSMICAGGDGVISSCNGDSGGPLNCQASDGRWQVHGIVSFGSRLGCNYYHKPSVFTRVSNYIDWINSVIANN
cleavage of alpha1-antitrypsin: Cela2a cleaves alphal-antitrypsin.
